# Results published in patent US20180334496A1 (KODIAK SCIENCES, published 2018).
# Residue numbers refer to the chain shown, from its start.
# B1: KCD114 (antibody, V domains shown)
# VH: EVQLQQSGPELVKPGASVKISCKASGYSFTAYYMNWVKQSPEKSLEWIGDINPSTGGTTYNQNFKAKATLTVDKSSSTAYMHLKSLTSEDSAVYYCATTYYSGNSYVGFAYWGQGTLVTVSA
# VL: DIVMTQSHKFMSTSVGDRVSITCKASQDVSTAVAWYQQKPGQSPKLLIFWASTRHTGVPDRFTGSGSGTDYTLTISSVQAEDLALYYCQQHYSTPWTFGGGTKLEIK
# B2: KCD230 (antibody, V domains shown)
# VH: QVQLQQPGTELVKPGASVKLPCKASGYTFTSYWMQWVKQRPGQGLEWIGEIDPSDTYINYNQKFKGKATLTVDTSSTTAYMQLSSLTSEDSAVYYCARYTTIMASDYWGQGTTLTVSS
# VL: DIQMTQTTSSLSVSLGDRVTISCRASQDITNYLNWYQQKPDGTVKLLIYFTSRLHSGVPSRFSGSGSGTDYSLTISNLEPEDIATYYCQQYSKLPWTFGGGTKLEIK
# B3: KCD224 (antibody, V domains shown)
# VH: QVQLKESGPGLVAPSQSLSITCTVSGFSLTSYGVDWIRQSPGKGLEWLGVIWGVGSTNYNSALKSRLSISKDNSKSQVFLKMNSLQTDDTAMYYCARSYDGSYWYFDVWGTGTTVTVSS
# VL: B2 VL with V13A, D28V, T30S, F50Y, W96Y, G100S
# B4: KCD065 (antibody, V domains shown)
# VH: QVQLQQSGAELARPGASVKMSCKASGYTFTTYTIHWVKQRPGQGLEWIGYINPSSDFTNYNQNFADKATLTADRSSSTAYMQLSSLTSEESAVYYCAIRLGYDRQGWYFDVWGAGTTVTVSS
# VL: DIVMTQSHKFLSTSLGDRVSITCKASQDVGSAVAWYQQKPGQSPDLLIYWTFTRHTGVPDRFTGSRSGTDFTLTISNVQSGDLADYFCQQYSNYPLTFGGGTKLEIK
# B5: KCD133 (antibody, V domains shown)
# VH: EVQLVESGGGLLQPKGSLKLSCAASGFTFNTYAMNWVRQAPGKGLEWVARIRSKSSNYATYYADSVKDRFTISRDDSQSMFYLEMNNLKTEDTAMYYCVRDRGYYYVMDYWGQGTSVTVSS
# VL: DIVLTQSPASLAVSLGQRATISCRASESVEYYGTSLMQWYQQKPGQPPKLLINAASNVESGVPARFSGSGSGTDFSLNIHPVEEDDIAMYFCQQSRKVPWTFGGGTKLEIK
# B6: KCD004 (antibody, V domains shown)
# VH: EVQLQQSGAELVRPGSSVKMSCKTSGKTFTSHGINWVKQRPGQGLEWIGYIYIGNGYNEYNEKFKGKATLTSDTSSSTAYMQLSSLTFEDSAIYFCVRKAYGNYGFDDWGQGTTLTVSS
# VL: DIQMTQSPTSLSASLGESVSLTCRASQEISGYLNWLQQKPDGSIKRLIYAASTLDSGVPKRFSGSRSGSDYSLTISSLESEDFADYYCLQYANYPFTFGSGTKLEVK
# notes: also called OG2063
# B7: KCD205 (antibody, V domains shown)
# VH: B6 VH with K27N, F88S
# VL: B6 VL with T9S, S18R, N34S, S43T, R66S, E81D, N93S, V106I
# B8: KCD126 (antibody, V domains shown)
# VH: B6 VH
# VL: B6 VL with Y32N
# B9: KCD125 (antibody, V domains shown)
# VH: B6 VH with K27N, H32Y, N55T, N58T, F88S, D108Y
# VL: B6 VL with T9S, S18R, N34S, S43T, N93S, V106I
# B10: KCD139 (antibody, V domains shown)
# VH: EVQLQQSGAELVRPGSSVKMSCKTSGYTFTSYGINWVKQRPGQGLEWIGYIYIANGYTENNEKFKGKAKLTSDISSSTAYMQLSSLTSEDSAIYFCARRFDYAGALDYWGQGTSVTVSS
# VL: DIVLTQSPASLAVSLGQRATISCRASESVDSYGNSFMHWYQQKPGQPPKLLIHRASNLESGIPARFSGSGSRTDFTLTINPVEADDVAIYYCQQTNDDPYTFGGGTNLEIK
# B11: KCD038 (antibody, V domains shown)
# VH: EVQLQQSGPELVKPGTSMKISCKASGYSFADYTMNWVKQSHGKSLEWIGLINPYNGGTSYNQKFMGKATLTVDKSSSTAYMELLSLTSEDSAVYYCARWGTYSHNYDYAMDYWGQGTSVTVSS
# VL: DVVMTQTPLSLPVSLGDQASISCRSSQSLVHSNGNTYLYWYFQKPGQSPKFLIYKVSNRFSGISDRFSGSGSGTDFTLKISRVEAEDLGVYFCSQSTHVPPFTFGSGTKLEIK
# B12: KCD039 (antibody, V domains shown)
# VH: B11 VH with L11M, T16A, M34L, A97T
# VL: B11 VL with P12S, F42L, F51L, S64T
# B13: KCD008 (antibody, V domains shown)
# VH: EVQLQQSGPELVKAGASVKMSCTASGFNIKDTYMHWVKQRPEQGLAWIGRIDPANGNIKYDPKFQGKATITADTSSNTAYLQLSSLTSDDTAVYYCTSAMDYWGQGTSVTVSS
# VL: QIVLTQSPEIMSASPGEKVTMTCSARSSVSYMYWYQQKPGSSPRLLIYDTSNLASGVPVRFSGSGSGTSYSLTISRMETEDAATYYCQQWSTYPFTFGSGTKLEIK
# B14: KCD040 (antibody, V domains shown)
# VH: EVQLQQSGAELVKPGASVKLSCTASDFNIKDTYMHWVMQRPEQGLEWIGKIDPANGNTEFDPKFQGKATITADTSSNTAYLQLTSLTSEDTAVYYCTRAMDYWGQGTSVTVSS
# VL: B13 VL with E9A, R26G, L45V, T79A, T92N, F95Y, S99G
# B15: KCD047 (antibody, V domains shown)
# VH: EVQLQQSGAEFVKPGASVRLSCTASGFNIKDTYMHWVKQRPEQGLEWIGRIDPANGYTKDDPKFQGKATITADTSSNTAYLQLSSLTSEDTAVYYCASAMDYWGQGTSVTVSS
# VL: B13 VL with E9A, I10V, T20A, R26S, S30T, T79A, T96P
# B16: KCD013 (antibody, V domains shown)
# VH: B15 VH with F11L, R19K, N28K, Q39E, E42D, Y57N, D60Y, S98N
# VL: B13 VL with V3I, E9A, R26S, Y31N, T68A, T79A, T92S, F95W, S99G
# B17: KCD050 (antibody, V domains shown)
# VH: QVQLKESGPGLVAPSQSLSITCTVSGFSLNSYGVQWVRQPPGQGLEWLVVIWRDGTITYNSALKSRLSINKDNSKSQVFLKMNSLQTDDTAMYYCGRTSHYGNFNYYVMDYWGQGTAVTVSS
# VL: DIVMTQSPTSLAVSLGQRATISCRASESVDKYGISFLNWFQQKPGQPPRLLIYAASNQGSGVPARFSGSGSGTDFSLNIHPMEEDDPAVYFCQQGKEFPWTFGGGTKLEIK
# B18: KCD052 (antibody, V domains shown)
# VH: B17 VH with V49G, T56S, N70R, F104Y
# VL: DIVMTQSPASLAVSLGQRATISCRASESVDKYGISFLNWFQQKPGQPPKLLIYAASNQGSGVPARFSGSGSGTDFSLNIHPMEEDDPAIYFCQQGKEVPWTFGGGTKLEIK
# B19: KCD070 (antibody, V domains shown)
# VH: EIQLQQTGPELVKPGASVKISCKASGYSFTDYIILWVKQSHGKSLEWIGNINPYYDYTSYNLKFKGKATLTVDKSSSTAYMQLNSLTSEDSAVYYCARSDGYYGGDYWGQGTSVTVSS
# VL: DIVMTQSHKFMSTSVGDRVSITCKASQDVGTAVAWYQQKPGQSPKLLIYWASTRHTGVPDRFTGSGSGTDFTLTINNVQSEDLADYFCQQYSSYPWTFGGGTTLEIK
# B20: KCD135 (antibody, V domains shown)
# VH: EVQLQQSGPELVKPGASVRMSCKASGYIFTDYSIHWVKQSHGKSLEWIGYINPNNGGTSYNQKFKGKATLTVNKSSTTAYMELRSLTSEDSAVYFCARDTTIVGDYWGQGTTLTVSS
# VL: DIVMTQSQKFMSTSVGDRVSVTCKASQHVGTNVVWYQQKPGQSPKALIYSASYRYSGVPDRFSGSGSGTDFTLTISNVQSEDLAEYFCQQFNSYPLTFGGGTKLEIK
# B21: KCD208 (antibody, V domains shown)
# VH: EVQLQQSVAELVRPGASVKLSCTVSGFNIKNTYMHWVKQRPEQGLEWIGRIDPANGDTTYAPKFQGKATITADTSSNSAYLHLSRLTSEDTAIYYCSLYDYDGYWGQGTTLTVSS
# VL: EIVLTQSPALMAASPGEKVTITCSVSSSISSSSLHWYRQKSGTSPKPWIYGTSHLASGVPVRFSGSGSGTSYSLTISSMEAEDAATYYCQQWDTYPWTFGGGTKLEIK
# B22: KCD075 (antibody, V domains shown)
# VH: QVQLLQPGAELVRPGTSVKLSCKASGYTFSNYWINWVKQRPGQGLEWIGNIYPSDSSINYNQKFKDKATLTVDKSSTTAYMQLSSPTSEDSAVYYCTGTDWYFDVWGAGTTVTVSS
# VL: DIQMTQTTSSLSASLGDRVTISCSGGQGISNYLNWYQQKPDGTFKLLIYYTSTLHSGVPSRFSGSGSGTDYSLTISNLEPEDVATYYCQQYSKLPYTFGGGTKLEIK
# B23: KCD066 (antibody, V domains shown)
# VH: QVQLQQSAAELARPGASVKMSCKASGYTFTDYTMHWVKQRPGQGLEWIGYINPSGGYTDYNQKFKDKTALTADKSSSTAYMQLSSLTSEDSAVYYCARRRDYWFAYWGQGTLVTVSA
# VL: DIVMSQSPSSLAVSVGEKVTMSCKSSQSLLYSGNQKNYLAWYQQKPGQSPKLLIYWASTRESGVPDRFTGSGSGTDFTLTISSVKAEDLAVYYCHQYYSYLTFGAGTKLELK
# B24: KCD210 (antibody, V domains shown)
# VH: EVQLQQSGPVLVKPGASVTMSCKASGYTFTEYYMNWVKQSHGKSLDWIGVINPYSGGTSYKQKFKDKATLTVDKSSSTAYMELNGLTSEDSAVYFCVRGGLRRNYFDYWGQGTTLTVSS
# VL: EIVLTQSPALMTASPGEKVTITCSVSSSISSTNLHWYQQKSGTSPKPWIFGTSNLASGVPVRFSGSGSGTSYSLTISNMEAEDAATYYCQQWNSYPFTFGTGTKLEIK
# B25: KCD030 (antibody, V domains shown)
# VH: QVQLQQSGAELAKPGASVKMSCKASGYTFTNYWMHWVKQRPGQGLEWIGYINPSIGYTEYNQKFKDKATLTADKSSSTAYMQLSSLTSEDSAVFYCATFIYYAMDYWGQGTSVTVSS
# VL: DIQMNQSPSSLSASLGDTITITCHASQNINVWLSWYQQKPGNIPKLLIYKASNLHTGVPSRFSGSGSGTGFTLTISSLQPEDIATYYCQQGQSYPYTFGGGTKLEIK
# B26: KCD018 (antibody, V domains shown)
# VH: QVQLQQSAAELARPGASVKMSCKASGYTFTSYTVHWVKQRPGQGLEWIGYINPSSGFTDYNQKFKDKTTLTADISSSTAYIQLSSLTSEDSAVYYCARRGVNWSWFAYWGQGTLVTVSA
# VL: NIMMTQSPSSLAVSAGEKVTMSCKSSQSVLYSSNQKNYLAWYQQKPGQSPQLLIYWASTRESGVPERFTGSGSGTDFTLTISSVQAEDLAVYYCHQYLSSWTFGGGTKLEIK
# Molecular target: T1, human Complement Factor D (CFD), purified from human serum (human, UniProt P00746 26-253)
# T1 construct: serum purified (CompTech A136); also called serum purified CFD; hCFD-Comptech
# Test: SPR MX96, mAbs amine-coupled, CFD injected
# T1 sequence (P00746 26-253): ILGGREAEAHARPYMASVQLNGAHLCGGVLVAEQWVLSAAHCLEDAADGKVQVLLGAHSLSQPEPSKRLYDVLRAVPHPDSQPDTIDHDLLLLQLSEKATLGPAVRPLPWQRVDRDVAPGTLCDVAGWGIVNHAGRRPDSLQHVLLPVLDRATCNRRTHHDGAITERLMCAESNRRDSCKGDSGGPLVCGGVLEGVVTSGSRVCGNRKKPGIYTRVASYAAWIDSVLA
row,Kd [nM],Binder
1,8.06,B1
2,2.48,B2
3,1.17,B3
4,3.28,B4
5,11.5,B5
6,0.353,B6
7,2.98,B7
8,0.34,B8
9,3.75,B9
10,5.28,B10
11,37.2,B11
12,52.5,B12
13,4.38,B13
14,1.93,B14
15,4.37,B15
16,7.32,B16
17,1.96,B17
18,3.07,B18
19,3.83,B19
20,21.2,B20
21,2.55,B21
22,3.75,B22
23,2.88,B23
24,3.52,B24
25,4.17,B25
26,40.8,B26
